In publication PMC12216690, “MORC2 is a phosphorylation-dependent DNA compaction machine” (Nature Communications, 2024):
Where a chain is given by its changes, count along the chain named. Names may count otherwise.

Key:
[1] = target: the molecule itself; assay: SEC-MALS; XBridge Protein BEH SEC column; 50 mM HEPES pH 8.0, 300 mM NaCl, 1 mM TCEP; 20 µl of protein at 1 mg/ml injected; no nucleotide
[2] = target: the molecule itself; assay: atomic force microscopy; dry AFM, 10 nM MORC2 in 40 mM Tris pH 7.5, 50 mM NaCl, 1 mM MgCl2, 0.5 mM TCEP, with 1 mM ATP, with 1 mM AMP-PNP or without ATP, on poly-O-lysine treated mica; particle volumes fitted with two gaussians
[3] = target: the molecule itself; assay: number and brightness analysis (fluorescence fluctuation spectroscopy); live MORC2 knockout HEK293T cells with low expression of MORC2-meGFP, nucleus, 37 degrees; without or with 0.5 µg/mL neocarzinostatin for 1 hour
[4] = target: the molecule itself; assay: cryo-EM structure; 2 µM protein with AMP-PNP, with or without three-fold molar excess of 60 bp DNA; C2 symmetry imposed
[5] = target: T1, MORC2 dephosphorylated (Homo sapiens, UniProt Q9Y6X9 1-1032); assay: SPR; lambda-PPase treated; EMSA: 20 mM Tris pH 7.4, 75 mM NaCl, 5% glycerol, 0.005% NP-40, 0.5 mM MgCl2, RT 30 min; SPR: 10 mM HEPES pH 7.4, 300 mM NaCl, 3 mM EDTA, 0.05% Tween-20, 20 C; conditions: protein: recombinant; tags: C-terminal 3C site-twin StrepII; chain copies: 2; label: 5'-biotin on strand 1; blunt
T1 sequence: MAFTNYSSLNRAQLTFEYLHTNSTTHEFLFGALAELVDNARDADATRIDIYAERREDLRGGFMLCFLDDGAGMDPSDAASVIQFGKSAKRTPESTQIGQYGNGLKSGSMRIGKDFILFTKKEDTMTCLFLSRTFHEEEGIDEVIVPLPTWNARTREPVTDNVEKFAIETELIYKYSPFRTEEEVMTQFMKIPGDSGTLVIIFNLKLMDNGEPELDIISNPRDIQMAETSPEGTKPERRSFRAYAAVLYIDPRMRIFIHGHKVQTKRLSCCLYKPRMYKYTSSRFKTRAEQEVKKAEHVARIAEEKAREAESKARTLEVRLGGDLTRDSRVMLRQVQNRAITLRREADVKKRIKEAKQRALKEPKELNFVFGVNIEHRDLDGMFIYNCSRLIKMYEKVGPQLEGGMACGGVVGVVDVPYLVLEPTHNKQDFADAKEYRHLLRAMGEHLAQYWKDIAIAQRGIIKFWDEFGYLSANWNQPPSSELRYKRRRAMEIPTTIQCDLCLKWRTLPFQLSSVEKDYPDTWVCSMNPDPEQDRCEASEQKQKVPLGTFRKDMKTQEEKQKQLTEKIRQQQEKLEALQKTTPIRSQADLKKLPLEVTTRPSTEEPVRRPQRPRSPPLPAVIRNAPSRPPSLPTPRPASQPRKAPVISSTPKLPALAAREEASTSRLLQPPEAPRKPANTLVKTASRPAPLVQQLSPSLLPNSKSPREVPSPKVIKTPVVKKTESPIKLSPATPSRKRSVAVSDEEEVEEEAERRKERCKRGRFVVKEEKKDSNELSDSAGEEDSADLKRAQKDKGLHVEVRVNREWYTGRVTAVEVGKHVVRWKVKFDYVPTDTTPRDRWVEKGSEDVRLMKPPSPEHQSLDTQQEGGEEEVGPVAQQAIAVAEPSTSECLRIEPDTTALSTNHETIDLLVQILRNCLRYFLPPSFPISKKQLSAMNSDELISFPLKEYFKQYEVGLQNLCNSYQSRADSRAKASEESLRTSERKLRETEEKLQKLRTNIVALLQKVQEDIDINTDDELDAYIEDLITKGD

[6] = target: T2, MORC2 WT (Homo sapiens, UniProt Q9Y6X9 1-1032); assay: SPR; EMSA: 20 mM Tris pH 7.4, 75 mM NaCl, 5% glycerol, 0.005% NP-40, 0.5 mM MgCl2, RT 30 min; SPR: 10 mM HEPES pH 7.4, 300 mM NaCl, 3 mM EDTA, 0.05% Tween-20, 20 C; conditions: protein: recombinant; tags: C-terminal 3C site-twin StrepII; chain copies: 2; label: 5'-biotin on strand 1; blunt
T2 sequence: T1 sequence

[7] = target: T3, MORC2 CW (Homo sapiens, UniProt Q9Y6X9 496-603); assay: EMSA; negligible binding; EMSA: 20 mM Tris pH 7.4, 75 mM NaCl, 5% glycerol, 0.005% NP-40, 0.5 mM MgCl2, RT 30 min; SPR: 10 mM HEPES pH 7.4, 300 mM NaCl, 3 mM EDTA, 0.05% Tween-20, 20 C; conditions: protein: recombinant; tags: C-terminal 3C site-twin StrepII; label: 5' 6FAM, IRDye680 or IRDye800 on XOm1; blunt
T3 sequence: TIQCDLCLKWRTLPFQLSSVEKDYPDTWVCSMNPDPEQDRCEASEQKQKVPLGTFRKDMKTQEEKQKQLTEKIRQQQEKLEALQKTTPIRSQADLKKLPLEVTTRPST

[8] = target: T4, MORC2 GHKL+CC1 (Homo sapiens, UniProt Q9Y6X9 1-495); assay: as above; conditions: protein: recombinant; tags: C-terminal 3C site-twin StrepII; label: 5' 6FAM, IRDye680 or IRDye800 on XOm1; blunt
T4 sequence: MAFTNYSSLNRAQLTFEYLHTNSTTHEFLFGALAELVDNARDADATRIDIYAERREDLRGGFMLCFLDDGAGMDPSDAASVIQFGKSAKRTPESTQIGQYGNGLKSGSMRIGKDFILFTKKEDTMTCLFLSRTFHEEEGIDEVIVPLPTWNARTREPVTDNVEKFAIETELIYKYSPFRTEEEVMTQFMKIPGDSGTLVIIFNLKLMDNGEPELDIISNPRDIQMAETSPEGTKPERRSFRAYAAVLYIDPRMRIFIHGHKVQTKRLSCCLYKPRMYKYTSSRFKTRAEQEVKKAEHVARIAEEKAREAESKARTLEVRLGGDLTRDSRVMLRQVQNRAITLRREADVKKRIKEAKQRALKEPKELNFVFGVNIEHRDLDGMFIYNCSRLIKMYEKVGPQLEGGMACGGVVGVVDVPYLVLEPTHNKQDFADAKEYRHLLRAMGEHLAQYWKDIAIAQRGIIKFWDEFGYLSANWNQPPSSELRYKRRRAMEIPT

[9] = target: T5, MORC2 CC2 (Homo sapiens, UniProt Q9Y6X9 544-587); assay: EMSA; DNA length inferred; EMSA: 20 mM Tris pH 7.4, 75 mM NaCl, 5% glycerol, 0.005% NP-40, 0.5 mM MgCl2, RT 30 min; SPR: 10 mM HEPES pH 7.4, 300 mM NaCl, 3 mM EDTA, 0.05% Tween-20, 20 C; conditions: protein: recombinant; tags: C-terminal 3C site-twin StrepII; label: 5' 6FAM, IRDye680 or IRDye800 on XOm1; blunt
T5 chain: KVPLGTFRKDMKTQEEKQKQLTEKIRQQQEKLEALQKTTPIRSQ

[10] = target: T6, MORC2 CC3 (Homo sapiens, UniProt Q9Y6X9 738-776); assay: as above; conditions: protein: recombinant; tags: C-terminal 3C site-twin StrepII; label: 5' 6FAM, IRDye680 or IRDye800 on XOm1; blunt
T6 chain: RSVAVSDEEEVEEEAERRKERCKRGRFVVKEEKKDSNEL

[11] = target: T2, MORC2 WT; assay: competition; pre-bound; 90 bp competitor still taken up; EMSA: 20 mM Tris pH 7.4, 75 mM NaCl, 5% glycerol, 0.005% NP-40, 0.5 mM MgCl2, RT 30 min; SPR: 10 mM HEPES pH 7.4, 300 mM NaCl, 3 mM EDTA, 0.05% Tween-20, 20 C; conditions: protein: recombinant; tags: C-terminal 3C site-twin StrepII; chain copies: 2; linear

B1: full-length MORC2 (MORC2^WT) (natural protein, human, UniProt Q9Y6X9 1-1032, looked up)
chain: T1 sequence
modifications: came phosphorylated from insect cells at multiple sites; top 6 hits S725, S730, S739, S743, S777, S779
notes: MORC2, human, UniProt Q9Y6X9, full length (1-1032); No cleavage of the tag is described; the SPR and single-molecule methods speak of StrepII-tagged MORC2; also called MORC2 WT (1-1032); MORC2^Apo; source: Sf9 insect cells, purified (Strep-Tactin, HiTrap Q, Superose 6 SEC)
- stoichiometry N [1]: 2

B2: ATP-binding-deficient mutant MORC2 N39A (MORC2^N39A) (natural protein, human, UniProt Q9Y6X9 1-1032, looked up)
chain: T1 sequence with N39A
notes: MORC2, human, UniProt Q9Y6X9, full length with N39A; also called N39A mutant; source: Sf9 insect cells, purified (Strep-Tactin, HiTrap Q, Superose 6 SEC)
- binding result [2]: binds

B3: monomeric eGFP (meGFP)-tagged MORC2 (natural protein, human, UniProt Q9Y6X9 1-1032, looked up)
chain: T1 sequence
notes: MORC2, human, UniProt Q9Y6X9; Probably the full-length cDNA; also called MORC2-meGFP; pBacMam-MORC2-meGFP-StrepII; source: expressed in MORC2 knockout HEK293T cells, in live cells
- fold increase of dimers upon neocarzinostatin [3]: ~2 fold

B4: full-length MORC2 ATPase-dead mutant (MORC2^S87A) (natural protein, human, UniProt Q9Y6X9 1-1032, looked up)
chain: T1 sequence with S87A
notes: MORC2, human, UniProt Q9Y6X9, full length with S87A; Only the ATPase domain is modelled in the cryo-EM map; also called S87A mutant; source: Sf9 insect cells, purified (Strep-Tactin, HiTrap Q, Superose 6 SEC)
- binding result [4]: binds

B5: MORC2 phosphodead (MORC2^PD) mutant (natural protein, human, UniProt Q9Y6X9 1-1032, looked up)
chain: T1 sequence with S725A, S730A, S739A, S743A, S777A, S779A
notes: MORC2, human, UniProt Q9Y6X9, full length with six serine to alanine mutations in the CTD; Only the ATPase domain is modelled in the cryo-EM maps; also called MORC2^PD-DNA; source: Sf9 insect cells, purified (Strep-Tactin, HiTrap Q, Superose 6 SEC)
- binding result [4]: binds

B6: 60 bp dsDNA (biotin, SPR) (dsDNA)
DNA 1: ACGCTGCCGAATTCTACCAGTGCCTTGCTAGGACATCTTTGCCCACCTGCAGGTTCACCC
DNA 2: GGGTGAACCTGCAGGTGGGCAAAGATGTCCTAGCAAGGCACTGGTAGAATTCGGCAGCGT
- Kd [5]: 15.3 ± 9.1 nM
- Kd [6]: 26.3 ± 11.4 nM

B7: 60 bp dsDNA (XOm1/XOm1.comp) (dsDNA)
DNA 1: B6 DNA 1
DNA 2: B6 DNA 2
- binding result [7]: no binding
- binding result [8]: no binding
- binding result [9]: binds
- binding result [10]: no binding

B8: 101 bp linear dsDNA (dsDNA)
DNA 1: CGGTCGTTTAGCATACTAATCTGAGAGTCCGACGGTCGTCAGTCAGTCATGACTTCACAGAGGAAGGGCCAGTATCCTGTCCAAACTTGATGCTCGAATTC
DNA 2: GAATTCGAGCATCAAGTTTGGACAGGATACTGGCCCTTCCTCTGTGAAGTCATGACTGACTGACGACCGTCGGACTCTCAGATTAGTATGCTAAACGACCG
- binding result [11]: binds
